Data: patent publication US20070014786A1 (RINAT NEUROSCIENCE, published 2007)
One block for each binder: values may come before it.

Tests used:
rat trkC = rat trkC (rat, UniProt Q03351 32-429, limits assumed); assay: BIAcore (SPR); format not stated; rat trkC
human trkC [1] = molecular target: T1, human trkC (human, UniProt Q16288 32-429, limits assumed); assay: BIAcore (SPR); format not stated; human trkC
T1 construct: also called htrkC

human trkC [2] = molecular target: T1, human trkC; assay: BIAcore (SPR); format not stated

- Kd (rat trkC): ~19 nM
- Kd (human trkC [1]): ~0.28 nM
B1: humanized anti-trkC agonist antibody A5 (antibody, V domains shown)
VH: QVQLVQSGAEVKKPGASVKVSCKASGYTFTSYRIHWVRQAPGQGLEWMGEIYPSNARTNYNEKFKSRVTMTRDTSTSTVYMELSSLRSEDTAVYYCARKYYYGNTRRSWYFDVWGQGTTVTVS
VL: DIQMTQSPSSLSASVGDRVTITCRASESIDNYGISFLAWYQQKPGKAPKLLIYAASNRGSGVPSRFSGSGSGTDFTFTISSLQPEDIATYYCQQSKTVPRTFGQGTKLEIKR

- Kd (human trkC [2]): ~40 nM
B2: mouse anti-trkC agonist monoclonal antibody 2256 (antibody, V domains shown)
VH: QVQLQQPGAELVKPGASVKLSCKASGYTFTSYWMHWVKQRPGQGLEWIGEIYPSNGRTNYNEKFKSKATLTVDKSSSTAYMQLSSLTSEDSAVYYCARKYYYGNSYRSWYFDVWGAGTTLTVS
VL: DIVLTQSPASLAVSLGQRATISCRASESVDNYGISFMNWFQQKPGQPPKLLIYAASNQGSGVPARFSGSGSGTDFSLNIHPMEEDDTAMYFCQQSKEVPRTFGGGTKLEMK
